Test results: patent US20210115154A1 (Chugai, published 2021)

Tests used:
[1] = molecular target: T1, Human MASP-3 (CCP1-CCP2-SP S664A) (human, labelled with NHS-PEG4-Biotin (sites not given)); assay: ELISA, antibody captured by goat anti-human IgG, 8 nM biotinylated antigen, streptavidin-HRP
T1 construct: Biotinylated for the cross-reactivity ELISA; also called N-terminally Flag-tagged human MASP-3 (CCP1-CCP2-SP S664A); not shown: N-terminal Flag-tag
T1 chain: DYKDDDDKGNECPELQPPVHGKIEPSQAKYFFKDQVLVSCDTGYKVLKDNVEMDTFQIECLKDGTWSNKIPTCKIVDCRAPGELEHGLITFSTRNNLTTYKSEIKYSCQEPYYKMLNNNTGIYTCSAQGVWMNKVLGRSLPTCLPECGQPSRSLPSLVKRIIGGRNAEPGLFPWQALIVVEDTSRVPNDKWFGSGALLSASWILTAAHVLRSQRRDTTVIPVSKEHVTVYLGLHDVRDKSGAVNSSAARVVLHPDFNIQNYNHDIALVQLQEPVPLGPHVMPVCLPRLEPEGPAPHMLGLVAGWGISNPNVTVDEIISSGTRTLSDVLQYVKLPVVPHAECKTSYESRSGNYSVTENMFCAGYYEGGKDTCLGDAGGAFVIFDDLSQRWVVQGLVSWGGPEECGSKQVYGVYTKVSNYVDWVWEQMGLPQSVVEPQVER
Protocol: (§1) ELISA assay was used to check the cross-reactivity of the chimeric monoclonal antibodies generated in 3.1 against human MASP-1 and human MASP-3. Goat anti-human IgG polyclonal antibody (Thermo Scientific, H10500) was diluted to 1 micro g/ml with PBS (-) and added to 384-well MAXISorp plates (Nunc, Cat No. 164688). The plates were incubated for 1 hour at room temperature, and blocked with Blocking One (Nacalai Tesque, Cat No. 03953-95) diluted 5 times. The plates were incubated for 1 hour, washed, and anti-MASP-1 antibody was added and incubated for 1 hour. Human MASP-1 (CCP1-CCP2-SP S646A) or human MASP-3 (CCP1-CCP2-SP S664A) was labelled with NHS-PEG4-Biotin (PIERCE, Cat No. 21329). After incubation, the plates were washed and 8 nM of labeled antigen was added and incubated for 1 hour. After incubation, the plates were washed and Streptavidin-HRP conjugate (Thermo Scientific 21130) were added. After 1 hour incubation, binding of biotinylated antigen was detected by the addition of ABTS (KPL, Cat No. 50-66-06). Anti-MASP-1 monoclonal antibodies listed in Table 5 were selected as MASP-1 specific antibodies and used for further analysis.

[2] = molecular target: T2, Human MASP-1 (CCP1-CCP2-SP S646A) (human, UniProt P48740 298-699, labelled with NHS-PEG4-Biotin (sites not given)); assay: as above
T2 construct: biotinylated for the ELISAs; also called N-terminally Flag-tagged human MASP-1 (CCP1-CCP2-SP S646A); not shown: N-terminal Flag-tag
T2 sequence: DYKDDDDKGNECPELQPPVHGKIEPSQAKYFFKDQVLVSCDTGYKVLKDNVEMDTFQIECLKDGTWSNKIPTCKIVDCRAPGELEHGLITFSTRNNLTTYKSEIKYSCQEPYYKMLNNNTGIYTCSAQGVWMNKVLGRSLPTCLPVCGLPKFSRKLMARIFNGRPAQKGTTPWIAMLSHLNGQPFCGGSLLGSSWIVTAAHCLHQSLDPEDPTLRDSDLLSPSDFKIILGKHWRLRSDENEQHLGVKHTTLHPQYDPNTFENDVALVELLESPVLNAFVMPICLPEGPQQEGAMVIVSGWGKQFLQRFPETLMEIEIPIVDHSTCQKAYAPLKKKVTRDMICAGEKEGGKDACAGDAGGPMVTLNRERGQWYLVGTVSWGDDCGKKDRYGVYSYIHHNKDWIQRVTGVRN
Protocol: as §1

[3] = molecular target: T3, human MASP-1 (human, UniProt P48740 20-699); assay: cell-based or functional assay
T3 sequence: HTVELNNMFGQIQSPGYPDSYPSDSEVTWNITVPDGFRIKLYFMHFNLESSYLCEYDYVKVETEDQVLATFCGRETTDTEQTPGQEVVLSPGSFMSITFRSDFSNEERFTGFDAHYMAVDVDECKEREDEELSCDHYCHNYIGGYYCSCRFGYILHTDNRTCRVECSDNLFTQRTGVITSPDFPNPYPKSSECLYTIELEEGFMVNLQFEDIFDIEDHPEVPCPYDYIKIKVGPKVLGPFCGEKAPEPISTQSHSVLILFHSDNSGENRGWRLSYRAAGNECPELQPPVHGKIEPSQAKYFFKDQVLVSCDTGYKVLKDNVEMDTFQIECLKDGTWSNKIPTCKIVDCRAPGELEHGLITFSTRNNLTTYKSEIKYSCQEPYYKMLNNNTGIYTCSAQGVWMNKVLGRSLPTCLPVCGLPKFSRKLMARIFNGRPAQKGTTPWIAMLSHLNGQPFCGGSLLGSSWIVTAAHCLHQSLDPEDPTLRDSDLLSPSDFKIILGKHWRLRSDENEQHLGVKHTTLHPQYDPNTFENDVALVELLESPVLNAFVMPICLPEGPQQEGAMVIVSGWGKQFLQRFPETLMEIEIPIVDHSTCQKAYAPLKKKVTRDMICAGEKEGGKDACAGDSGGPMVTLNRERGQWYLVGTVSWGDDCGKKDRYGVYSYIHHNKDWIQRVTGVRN

| Binder | absorbance at 405 nm after background subtraction [1] [absorbance at 405 nm] | absorbance at 405 nm after background subtraction [2] [absorbance at 405 nm] | IC50 of inhibition of human C4c deposition (C4c ELISA, normal human serum on mannan) [3] [µg/mL] | absorbance at 405 nm after background subtraction (absorbance at 405 nm) [1] |
| --- | --- | --- | --- | --- |
| MAS0141aa (antibody, human IgG4 S228P, kappa, V domains shown, Rabbit/human chimeric antibody: rabbit variable regions recombined with F760G4 and kOMTC constant regions; also called anti-MASP-1 chimeric mAb MAS0141aa) VH: QSVEESGGRLVTPGTPLTLTCTASGFSLINYYMTWVRQAPGKGLEWIGIINTDGGTYYASWAKGRFTISRTSTTVDLKMTSLTTEDTATYFCARGVFTGGWTGMRTNLWGPGTLVTVSS VL: DVVMTQTPASVEAAVGGTVTIKCQASEDIYILLAWYQQKPGQPPKLLIYAASNLESGVPSRFKGSGSGTEFTLTISDLECADAATYYCQCTYGSSSSNAFGGGTKVEIKR | -0.147 | 1.51 | 0.45 | – |
| MAS0116aa (antibody, human IgG4 S228P, kappa, V domains shown, Rabbit/human chimeric antibody: rabbit variable regions recombined with F760G4 and kOMTC constant regions; also called anti-MASP-1 chimeric mAb MAS0116aa) VH: QSLEESGGRLVTPGTPLTLTCTASGFSLSSCYMSWVRQAPGEGLEWIGTIYTGSGATYYASWAKGRFTVSITSTTVDLKITSPTTEDTATYFCARAIYPGSSSSNLCAFDLWGPGTLVTVSS VL: QVLTQTPASVSAAVGGTVTINCQASQSVYDNNWLAWYQQKPGQPPKLLIYQASSLASGVPSRFKGSGSGAQFTLTISDLECDDAATYFCQGYYAGVLYSFGGGTKVEIKR | 0.055 | 1.72 | 0.47 | – |
| MAS0154dd (antibody, human IgG4 S228P, kappa, V domains shown, Rabbit/human chimeric antibody: rabbit variable regions recombined with F760G4 and kOMTC constant regions; also called anti-MASP-1 chimeric mAb MAS0154dd) VH: QSVEESGGRLVTPGTPLTLTCTVSGFSLSNYNMGWVRQAPGEGLEYIGIISSQGDIYYATWAKGRFTISKTSTTVDLKITSPTTEDTATYFCARARHVGSAADSYFHLWGLGTLVTVSS VL: AVVLTQTASPVSAAVGGTVTINCQASEEIYRNLAWYQQKPGQRPKLLIYGASNLASGVPSRFSGSGSGTEYTLTISDLECADAATYYCQRYAWGKNSADGNTFGGGTKVEIKR | 0.078 | 1.95 | 0.11 | – |
| MAS0102dd (antibody, human IgG4 S228P, kappa, V domains shown, Rabbit/human chimeric antibody: rabbit variable regions recombined with F760G4 and kOMTC constant regions; also called anti-MASP-1 chimeric mAb MAS0102dd) VH: QSVEESGGRLVTPGTPLTLTCTVSGFSLSSYAMSWVRQAPGKGLEWIGIITNLDNTYYANWAKGRFTISKTSTTVDLKITSPTTEDTAAYLCARERIKRKYSYDDYGGWAFDPWGPGTLVTVSS VL: QVLTQTPSSVSGPVGGTVTINCQAIENIYRSLAWYQQKPGQPPKLLIYDTSDLASGVPSRFSGSGSGTEYTLTISGVQCDDAATYYCQSYYYSSVTYNAFGGGTKVEIKR | -0.027 | 1.98 | 0.29 | – |
| MAS0177hh (antibody, human IgG4 S228P, kappa, V domains shown, Rabbit/human chimeric antibody: rabbit variable regions recombined with F760G4 and kOMTC constant regions; also called anti-MASP-1 chimeric mAb MAS0177hh) VH: QSVEESGGRLVTPGTPLTLTCTASGFSLSSAYMNWVRQAPGKGLEWIGIIYASGSTWYASWAKGRFTISKTSTTVDLKITSPTTEDTATYFCARDDYGTADLWGPGTLVTVSS VL: AVVLTQTASPVSAPVGGTVTIKCQASQSIGSSLAWYQQKPGQSPKLLIYGASTLVSGVSSRFSGSRSGTEFSLTISDLECADAATYYCQNYYLSSSSADRRTFGGGTKVEIKR | – | 0.898 | 3.29 | 0.388 |
| MAS0114bb (antibody, human IgG4 S228P, kappa, V domains shown, Rabbit/human chimeric antibody: rabbit variable regions recombined with F760G4 and kOMTC constant regions; also called anti-MASP-1 chimeric mAb MAS0114bb) VH: QSVEESGGRLVTPGTPLTLTCTASGFDINNYAIHWVRQAPGEGLEWIGYIYARSGVTWYASWVKGRFTISKTSTTVDLKMTSLTTEDTATYFCARVLAGGGYANTGLSLWGPGTLVTVSS VL: DIVMTQTPSSVSAAVGGTVTIKCQASQNIGYSSAWYQQKPGQRPKLMIYGASTLASGVPSRFSGSGSGTEYTLTISGVQCDDAATYYCQSNYISSGSVDGTFGGGTKVEIKR | -0.068 | 1.79 | 0.14 | – |
